Reference: patent US12060408B2, “Screening assays, modulators and modulation of activation of Receptor for Advanced Glycation End-products (RAGE)” (Monash University, priority 2017, dated 2024)
Values belong to the compound of their own block, whether it stands above or below them. Ends that are not written are not given here.

How the values were obtained:
Format in all cases: cell-based
RAGE = molecular target: T1, RAGE (Homo sapiens, UniProt Q15109); test: Ang II-induced pro-inflammatory gene expression in human aortic endothelial cells (HAEC); details: HAECs; 1 μM, 30 minutes before Ang II; FIG. 13G
T1 construct: RAGE-AT1R—CHO cells expressing both full length RAGE and AT1R; expressed in transfected cells
Description: To confirm the applicability of inhibition strategies to human tissues, additional experiments were undertaken in primary aortic endothelial cells from humans (Lonza). HAECs were grown in EGM-2 media. […]

AT1R and RAGE = molecular target: T2, AT1R and RAGE (Homo sapiens, UniProt P30556+Q15109); test: BRET between AT1R/Rluc8 and RAGE/Venus in HEK293FT cells
T2 construct: expressed in transfected cells; host or cells: HEK293FT

[1] = molecular target: T3, adrenergic α2B receptor and RAGE (Homo sapiens, UniProt P18089+Q15109); test: Ligand-induced BRET, Rluc8-tagged GPCR and RAGE/Venus; details: mCherry-RAGE338-361 co-expressed, FIG. 21F
T3 construct: expressed in transfected cells; host or cells: HEK293FT

[2] = molecular target: T4, bradykinin receptor 2 (B2R) and RAGE (Homo sapiens, UniProt P30411+Q15109); test: as above; details: mCherry-RAGE338-361 co-expressed, FIG. 21F
T4 construct: expressed in transfected cells; host or cells: HEK293FT

CCR1 and RAGE = molecular target: T5, CCR1 and RAGE (Homo sapiens, UniProt P32246+Q15109); test: as above; details: mCherry-RAGE338-361 co-expressed, FIG. 21F
T5 construct: expressed in transfected cells; host or cells: HEK293FT

CCR2 and RAGE = molecular target: T6, CCR2 and RAGE (Homo sapiens, UniProt P41597+Q15109); test: as above; details: mCherry-RAGE338-361 co-expressed, FIG. 21F
T6 construct: expressed in transfected cells; host or cells: HEK293FT

CCR4 and RAGE = molecular target: T7, CCR4 and RAGE (Homo sapiens, UniProt P51679+Q15109); test: as above; details: mCherry-RAGE338-361 co-expressed, FIG. 21F
T7 construct: expressed in transfected cells; host or cells: HEK293FT

CCR5 and RAGE = molecular target: T8, CCR5 and RAGE (Homo sapiens, UniProt P51681+Q15109); test: as above; details: mCherry-RAGE338-361 co-expressed, FIG. 21F
T8 construct: expressed in transfected cells; host or cells: HEK293FT

CCR6 and RAGE = molecular target: T9, CCR6 and RAGE (Homo sapiens, UniProt P51684+Q15109); test: as above; details: mCherry-RAGE338-361 co-expressed, FIG. 21F
T9 construct: expressed in transfected cells; host or cells: HEK293FT

CCR9 and RAGE = molecular target: T10, CCR9 and RAGE (Homo sapiens, UniProt P51686+Q15109); test: as above; details: mCherry-RAGE338-361 co-expressed, FIG. 21F
T10 construct: expressed in transfected cells; host or cells: HEK293FT

CXCR2 and RAGE = molecular target: T11, CXCR2 and RAGE (Homo sapiens, UniProt P25025+Q15109); test: as above; details: mCherry-RAGE338-361 co-expressed, FIG. 21F
T11 construct: expressed in transfected cells; host or cells: HEK293FT

CXCR4 and RAGE = molecular target: T12, CXCR4 and RAGE (Homo sapiens, UniProt P61073+Q15109); test: as above; details: mCherry-RAGE338-361 co-expressed, FIG. 21F
T12 construct: expressed in transfected cells; host or cells: HEK293FT

[3] = molecular target: T13, neuropeptide Y1 receptor (NPY1R) and RAGE (Homo sapiens, UniProt P25929+Q15109); test: as above; details: mCherry-RAGE338-361 co-expressed, FIG. 21F
T13 construct: expressed in transfected cells; host or cells: HEK293FT

[4] = molecular target: T14, orexin receptor 2 and RAGE (Homo sapiens, UniProt O43614+Q15109); test: as above; details: mCherry-RAGE338-361 co-expressed, FIG. 21F
T14 construct: expressed in transfected cells; host or cells: HEK293FT

[5] = molecular target: T15, sphingosine 1-phosphate receptor 1 (S1PR1) and RAGE (Homo sapiens, UniProt P21453+Q15109); test: as above; details: mCherry-RAGE338-361 co-expressed, FIG. 21F
T15 construct: expressed in transfected cells; host or cells: HEK293FT

[6] = tested on: thyrotropin-releasing hormone receptor 1 (TRHR1) and RAGE; test: as above; details: mCherry-RAGE338-361 co-expressed, FIG. 21F
[7] = molecular target: T16, vasopressin receptor 1A (V1aR) and RAGE (Homo sapiens, UniProt P37288+Q15109); test: as above; details: mCherry-RAGE338-361 co-expressed, FIG. 21F
T16 construct: expressed in transfected cells; host or cells: HEK293FT

[8] = molecular target: T17, vasopressin receptor 1B (V1bR) and RAGE (Homo sapiens, UniProt P47901+Q15109); test: as above; details: mCherry-RAGE338-361 co-expressed, FIG. 21F
T17 construct: expressed in transfected cells; host or cells: HEK293FT

[9] = molecular target: T18, vasopressin receptor 2 (V2R) and RAGE (Homo sapiens, UniProt P30518+Q15109); test: as above; details: mCherry-RAGE338-361 co-expressed, FIG. 21F
T18 construct: expressed in transfected cells; host or cells: HEK293FT

[10] = molecular target: T19, adenosine A1 receptor (ADORA1) and RAGE (Homo sapiens, UniProt P30542+Q15109); test: as above; details: mCherry-RAGE338-361 co-expressed, FIG. 21F
T19 construct: expressed in transfected cells; host or cells: HEK293FT

CCR7 and RAGE = molecular target: T20, CCR7 and RAGE (Homo sapiens, UniProt P32248+Q15109); test: as above; details: mCherry-RAGE338-361 co-expressed, FIG. 21F
T20 construct: expressed in transfected cells; host or cells: HEK293FT

CXCR5 and RAGE = molecular target: T21, CXCR5 and RAGE (Homo sapiens, UniProt P32302+Q15109); test: as above; details: mCherry-RAGE338-361 co-expressed, FIG. 21F
T21 construct: expressed in transfected cells; host or cells: HEK293FT

AT1 = molecular target: T22, AT1 (Homo sapiens, UniProt P30556); test: BRET between mCherry-RAGE338-361 and Nluc-AT1; design: expressed in transfected cells; host or cells: HEK293FT, transient; details: FIG. 21A
T22 sequence (P30556 1-359): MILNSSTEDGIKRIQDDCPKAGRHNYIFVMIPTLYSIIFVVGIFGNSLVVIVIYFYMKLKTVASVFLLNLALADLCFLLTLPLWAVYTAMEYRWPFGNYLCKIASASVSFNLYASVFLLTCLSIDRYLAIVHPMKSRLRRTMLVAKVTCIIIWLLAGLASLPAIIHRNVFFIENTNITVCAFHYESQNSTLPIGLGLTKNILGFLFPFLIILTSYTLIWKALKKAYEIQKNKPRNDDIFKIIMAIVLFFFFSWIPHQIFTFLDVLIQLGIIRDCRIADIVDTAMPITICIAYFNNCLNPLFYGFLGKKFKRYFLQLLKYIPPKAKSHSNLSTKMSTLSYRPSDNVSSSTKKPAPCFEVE

T2 sequence (Q15109 23-404, one chain of several): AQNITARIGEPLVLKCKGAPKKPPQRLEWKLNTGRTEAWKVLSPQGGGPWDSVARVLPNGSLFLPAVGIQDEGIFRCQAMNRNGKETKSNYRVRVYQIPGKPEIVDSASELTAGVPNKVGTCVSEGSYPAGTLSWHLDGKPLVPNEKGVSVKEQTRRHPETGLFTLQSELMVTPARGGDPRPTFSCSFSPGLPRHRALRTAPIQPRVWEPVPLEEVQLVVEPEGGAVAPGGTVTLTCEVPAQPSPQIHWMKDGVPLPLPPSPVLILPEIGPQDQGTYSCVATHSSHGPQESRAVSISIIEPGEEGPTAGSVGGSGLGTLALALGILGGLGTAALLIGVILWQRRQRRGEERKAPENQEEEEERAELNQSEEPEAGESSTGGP
T17 sequence (P47901 whole entry): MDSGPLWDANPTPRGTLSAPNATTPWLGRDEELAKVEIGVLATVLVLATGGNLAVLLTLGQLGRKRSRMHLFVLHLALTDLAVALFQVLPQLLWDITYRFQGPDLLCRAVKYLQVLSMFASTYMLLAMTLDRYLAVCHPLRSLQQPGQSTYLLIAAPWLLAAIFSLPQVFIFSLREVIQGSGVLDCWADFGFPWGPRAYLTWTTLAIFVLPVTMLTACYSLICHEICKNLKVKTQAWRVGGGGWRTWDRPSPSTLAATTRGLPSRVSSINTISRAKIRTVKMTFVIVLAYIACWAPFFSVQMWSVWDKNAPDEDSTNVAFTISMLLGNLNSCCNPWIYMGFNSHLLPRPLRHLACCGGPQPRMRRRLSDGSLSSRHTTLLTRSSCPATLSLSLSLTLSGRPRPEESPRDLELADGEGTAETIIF
T17 sequence (Q15109 23-404): as the sequence (Q15109 23-404, one chain of several) above
T16 sequence (P37288 whole entry): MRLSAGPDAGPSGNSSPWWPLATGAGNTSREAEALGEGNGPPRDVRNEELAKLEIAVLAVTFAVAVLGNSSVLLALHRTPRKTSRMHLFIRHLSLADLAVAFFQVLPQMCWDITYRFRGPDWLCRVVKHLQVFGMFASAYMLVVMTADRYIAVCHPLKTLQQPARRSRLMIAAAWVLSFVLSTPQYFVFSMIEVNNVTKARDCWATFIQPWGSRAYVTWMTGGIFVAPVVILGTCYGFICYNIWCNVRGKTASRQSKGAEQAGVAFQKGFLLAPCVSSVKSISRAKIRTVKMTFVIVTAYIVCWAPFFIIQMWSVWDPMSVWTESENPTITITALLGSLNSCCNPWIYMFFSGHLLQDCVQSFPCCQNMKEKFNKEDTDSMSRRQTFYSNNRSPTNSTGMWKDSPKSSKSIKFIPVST
T16 sequence (Q15109 23-404): as the sequence (Q15109 23-404, one chain of several) above
T8 sequence (P51681 whole entry): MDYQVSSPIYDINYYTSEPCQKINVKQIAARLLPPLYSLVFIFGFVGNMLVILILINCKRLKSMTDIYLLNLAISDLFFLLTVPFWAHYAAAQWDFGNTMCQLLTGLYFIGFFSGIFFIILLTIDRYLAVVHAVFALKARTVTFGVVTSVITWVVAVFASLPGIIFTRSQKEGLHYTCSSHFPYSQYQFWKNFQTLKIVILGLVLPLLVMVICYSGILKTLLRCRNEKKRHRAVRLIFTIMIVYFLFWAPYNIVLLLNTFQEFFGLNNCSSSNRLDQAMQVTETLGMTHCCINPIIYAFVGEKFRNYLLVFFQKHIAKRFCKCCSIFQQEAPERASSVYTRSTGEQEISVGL
T8 sequence (Q15109 23-404): as the sequence (Q15109 23-404, one chain of several) above
T12 sequence (P61073 whole entry): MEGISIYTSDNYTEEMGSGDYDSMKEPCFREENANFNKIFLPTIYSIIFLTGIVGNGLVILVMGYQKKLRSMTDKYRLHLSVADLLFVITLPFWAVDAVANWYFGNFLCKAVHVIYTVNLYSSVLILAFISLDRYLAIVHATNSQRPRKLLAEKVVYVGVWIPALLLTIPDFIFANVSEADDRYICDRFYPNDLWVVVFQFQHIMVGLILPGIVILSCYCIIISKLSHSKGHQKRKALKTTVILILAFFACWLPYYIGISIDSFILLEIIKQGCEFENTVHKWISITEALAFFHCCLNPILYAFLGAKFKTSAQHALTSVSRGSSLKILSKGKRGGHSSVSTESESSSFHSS
T12 sequence (Q15109 23-404): as the sequence (Q15109 23-404, one chain of several) above
T11 sequence (P25025 whole entry): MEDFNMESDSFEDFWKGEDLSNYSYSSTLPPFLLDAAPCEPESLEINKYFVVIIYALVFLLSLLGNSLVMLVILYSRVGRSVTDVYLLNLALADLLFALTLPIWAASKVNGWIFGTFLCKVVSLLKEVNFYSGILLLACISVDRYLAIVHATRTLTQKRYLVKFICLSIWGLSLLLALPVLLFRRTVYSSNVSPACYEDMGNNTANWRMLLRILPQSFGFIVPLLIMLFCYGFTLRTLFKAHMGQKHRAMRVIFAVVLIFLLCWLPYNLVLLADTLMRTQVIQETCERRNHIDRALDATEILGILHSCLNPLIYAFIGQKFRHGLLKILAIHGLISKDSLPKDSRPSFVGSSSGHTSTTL
T11 sequence (Q15109 23-404): as the sequence (Q15109 23-404, one chain of several) above
T15 sequence (P21453 whole entry): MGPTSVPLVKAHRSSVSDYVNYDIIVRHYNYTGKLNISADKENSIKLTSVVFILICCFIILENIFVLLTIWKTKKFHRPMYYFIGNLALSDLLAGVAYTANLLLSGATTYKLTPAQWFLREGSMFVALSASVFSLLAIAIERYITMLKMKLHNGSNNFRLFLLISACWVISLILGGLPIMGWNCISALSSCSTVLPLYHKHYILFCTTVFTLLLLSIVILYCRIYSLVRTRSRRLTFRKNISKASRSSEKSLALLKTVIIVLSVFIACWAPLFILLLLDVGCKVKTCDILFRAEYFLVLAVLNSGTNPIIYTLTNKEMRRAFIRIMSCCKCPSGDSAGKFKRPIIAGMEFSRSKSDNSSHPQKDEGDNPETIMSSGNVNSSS
T15 sequence (Q15109 23-404): as the sequence (Q15109 23-404, one chain of several) above
T4 sequence (P30411 whole entry): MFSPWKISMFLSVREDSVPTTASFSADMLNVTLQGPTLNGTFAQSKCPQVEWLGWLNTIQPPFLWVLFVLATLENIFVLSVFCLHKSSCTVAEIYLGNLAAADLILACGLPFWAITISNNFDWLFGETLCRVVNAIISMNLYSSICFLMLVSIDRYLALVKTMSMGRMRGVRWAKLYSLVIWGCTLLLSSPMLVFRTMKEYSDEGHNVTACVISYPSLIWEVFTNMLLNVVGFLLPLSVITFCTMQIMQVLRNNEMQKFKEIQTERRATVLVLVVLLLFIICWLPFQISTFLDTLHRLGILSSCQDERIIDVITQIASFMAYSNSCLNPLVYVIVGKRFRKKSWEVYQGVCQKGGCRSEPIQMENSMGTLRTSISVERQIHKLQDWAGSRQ
T4 sequence (Q15109 23-404): as the sequence (Q15109 23-404, one chain of several) above
T14 sequence (O43614 whole entry): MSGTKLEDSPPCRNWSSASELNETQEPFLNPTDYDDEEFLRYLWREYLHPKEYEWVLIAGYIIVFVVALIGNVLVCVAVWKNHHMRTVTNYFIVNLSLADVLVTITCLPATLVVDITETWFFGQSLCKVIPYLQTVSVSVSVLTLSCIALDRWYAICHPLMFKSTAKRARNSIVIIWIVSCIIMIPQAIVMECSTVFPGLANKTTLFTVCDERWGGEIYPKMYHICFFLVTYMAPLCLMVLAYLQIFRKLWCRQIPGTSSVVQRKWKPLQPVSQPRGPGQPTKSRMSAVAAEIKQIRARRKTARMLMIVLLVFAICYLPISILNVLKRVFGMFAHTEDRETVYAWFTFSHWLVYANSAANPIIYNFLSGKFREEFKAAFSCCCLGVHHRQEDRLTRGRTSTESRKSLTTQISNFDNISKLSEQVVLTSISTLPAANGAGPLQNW
T14 sequence (Q15109 23-404): as the sequence (Q15109 23-404, one chain of several) above
T13 sequence (P25929 whole entry): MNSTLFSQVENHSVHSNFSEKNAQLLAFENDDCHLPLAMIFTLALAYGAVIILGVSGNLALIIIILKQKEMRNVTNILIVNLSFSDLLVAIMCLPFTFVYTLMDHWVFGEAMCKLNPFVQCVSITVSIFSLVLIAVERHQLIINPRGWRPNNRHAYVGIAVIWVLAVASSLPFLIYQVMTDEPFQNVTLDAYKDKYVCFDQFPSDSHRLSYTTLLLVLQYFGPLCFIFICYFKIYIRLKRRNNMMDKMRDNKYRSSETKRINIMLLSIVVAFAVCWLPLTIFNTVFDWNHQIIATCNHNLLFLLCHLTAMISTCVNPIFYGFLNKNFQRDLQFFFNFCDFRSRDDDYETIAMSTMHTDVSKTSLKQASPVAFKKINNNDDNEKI
T13 sequence (Q15109 23-404): as the sequence (Q15109 23-404, one chain of several) above
T6 sequence (P41597 whole entry): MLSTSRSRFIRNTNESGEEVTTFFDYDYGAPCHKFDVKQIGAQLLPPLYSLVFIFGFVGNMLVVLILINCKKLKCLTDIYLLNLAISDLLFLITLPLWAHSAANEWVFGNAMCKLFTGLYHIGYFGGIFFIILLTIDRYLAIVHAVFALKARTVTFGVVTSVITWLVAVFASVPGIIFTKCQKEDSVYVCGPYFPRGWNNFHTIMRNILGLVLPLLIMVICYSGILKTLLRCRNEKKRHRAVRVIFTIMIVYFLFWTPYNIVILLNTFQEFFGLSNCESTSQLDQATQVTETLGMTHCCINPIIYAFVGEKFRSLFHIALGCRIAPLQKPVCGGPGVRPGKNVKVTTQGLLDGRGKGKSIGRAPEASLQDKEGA
T6 sequence (Q15109 23-404): as the sequence (Q15109 23-404, one chain of several) above
T1 sequence (Q15109 23-404): as the sequence (Q15109 23-404, one chain of several) above

Ang II-induced induction of pro-inflammatory genes (RAGE): inhibitory effect
Compound: CCCCC1=NC2(CCCC2)C(=O)N1Cc1ccc(-c2ccccc2-c2nnn[nH]2)cc1 [irbesartan]

inhibition of the change in the ligand-induced BRET signal between the Rluc8-tagged GPCR and RAGE/Venus (AT1R and RAGE; angiotensin receptor AT1 (AT1R), mCherry-RAGE338-361 co-expressed, FIG. 21F): particularly clear inhibition
inhibition of the change in the ligand-induced BRET signal between the Rluc8-tagged GPCR and RAGE/Venus [1]: particularly clear inhibition
inhibition of the change in the ligand-induced BRET signal between the Rluc8-tagged GPCR and RAGE/Venus [2]: particularly clear inhibition
inhibition of the change in the ligand-induced BRET signal between the Rluc8-tagged GPCR and RAGE/Venus (CCR1 and RAGE): particularly clear inhibition
inhibition of the change in the ligand-induced BRET signal between the Rluc8-tagged GPCR and RAGE/Venus (CCR2 and RAGE): particularly clear inhibition
inhibition of the change in the ligand-induced BRET signal between the Rluc8-tagged GPCR and RAGE/Venus (CCR4 and RAGE): particularly clear inhibition
inhibition of the change in the ligand-induced BRET signal between the Rluc8-tagged GPCR and RAGE/Venus (CCR5 and RAGE): particularly clear inhibition
inhibition of the change in the ligand-induced BRET signal between the Rluc8-tagged GPCR and RAGE/Venus (CCR6 and RAGE): particularly clear inhibition
inhibition of the change in the ligand-induced BRET signal between the Rluc8-tagged GPCR and RAGE/Venus (CCR9 and RAGE): particularly clear inhibition
inhibition of the change in the ligand-induced BRET signal between the Rluc8-tagged GPCR and RAGE/Venus (CXCR2 and RAGE): particularly clear inhibition
inhibition of the change in the ligand-induced BRET signal between the Rluc8-tagged GPCR and RAGE/Venus (CXCR4 and RAGE): particularly clear inhibition
inhibition of the change in the ligand-induced BRET signal between the Rluc8-tagged GPCR and RAGE/Venus [3]: particularly clear inhibition
inhibition of the change in the ligand-induced BRET signal between the Rluc8-tagged GPCR and RAGE/Venus [4]: particularly clear inhibition
inhibition of the change in the ligand-induced BRET signal between the Rluc8-tagged GPCR and RAGE/Venus [5]: particularly clear inhibition
inhibition of the change in the ligand-induced BRET signal between the Rluc8-tagged GPCR and RAGE/Venus [6]: particularly clear inhibition
inhibition of the change in the ligand-induced BRET signal between the Rluc8-tagged GPCR and RAGE/Venus [7]: particularly clear inhibition
inhibition of the change in the ligand-induced BRET signal between the Rluc8-tagged GPCR and RAGE/Venus [8]: particularly clear inhibition
inhibition of the change in the ligand-induced BRET signal between the Rluc8-tagged GPCR and RAGE/Venus [9]: particularly clear inhibition
inhibition of the change in the ligand-induced BRET signal between the Rluc8-tagged GPCR and RAGE/Venus [10]: small yet discernible inhibition
inhibition of the change in the ligand-induced BRET signal between the Rluc8-tagged GPCR and RAGE/Venus (CCR7 and RAGE): small yet discernible inhibition
inhibition of the change in the ligand-induced BRET signal between the Rluc8-tagged GPCR and RAGE/Venus (CXCR5 and RAGE): small yet discernible inhibition
BRET signal with extracellularly luciferase-tagged AT1 receptor (Nluc-AT1) (AT1): BRET signal is observed
Compound: mCherry-RAGE338-361: the RAGE TMD with an extracellular juxta-membrane fragment linked to mCherry (LGTLALALGILGGLGTAALLIGVI; also: linked to mCherry)
BRET between full length RAGE and AT1 (saturation and kinetic assays) (AT1R and RAGE; overexpression of mCherry-RAGE338-361, FIG. 21B, 21C): modulates BRET between full length RAGE and AT1 in a dose dependent fashion
